# Entries after “also recorded” stand apart in the source; their conditions may differ.
# B1: DT8: novel 7.2 kDa C. trachomatis specific protein, SEQ ID NO:1, not annotated in genome (protein, listed as Chlamydia trachomatis)
# chain: MQHTIMLSLENDNDKLASMMDRVVAASSSILSASKDSESNRQFTISKAPDKEAPCRVSYVAASALSE
# B2: DT48: C. trachomatis D protein spot, N-terminal fragment of CT858 (protein)
# chain: IHSPVQGESLVCKNALQDLSFLEHLLQVKYAPKTWKEQYLGWDLVQSSVSAQQKLRTQENPSTSFCQQVLADFIGGLNDFHAGVTFFAIESAYLPYTVQKSSDGRFYFVDIMTFSSEIRVGDELLEVDGAPVQDVLATLYGSNHKGTAAEESAALRTLFSRMASLGHKVPSGRTTLKIRRPFGTTREVRVKWRYVPEGVGDLATIAPSIRAPQLQKSM
# B3: CT858: C. trachomatis 67 kDa protein, fragments DT4 (C-terminal) and DT48 (N-terminal) (protein)
# chain: MKMNRIWLLLLTFSSAIHSPVQGESLVCKNALQDLSFLEHLLQVKYAPKTWKEQYLGWDLVQSSVSAQQKLRTQENPSTSFCQQVLADFIGGLNDFHAGVTFFAIESAYLPYTVQKSSDGRFYFVDIMTFSSEIRVGDELLEVDGAPVQDVLATLYGSNHKGTAAEESAALRTLFSRMASLGHKVPSGRTTLKIRRPFGTTREVRVKWRYVPEGVGDLATIAPSIRAPQLQKSMRSFFPKKDDAFHRSSSLFYSPMVPHFWAELRNHYATSGLKSGYNIGSTDGFLPVIGPVIWESEGLFRAYISSVTDGDGKSHKVGFLRIPTYSWQDMEDFDPSGPPPWEEFAKIIQVFSSNTEALIIDQTNNPGGSVLYLYALLSMLTDRPLELPKHRMILTQDEVVDALDWLTLLENVDTNVESRLALGDNMEGYTVDLQVAEYLKSFGRQVLNCWSKGDIELSTPIPLFGFEKIHPHPRVQYSKPICVLINEQDFSCADFFPVVLKDNDRALIVGTRTAGAGGFVFNVQFPNRTGIKTCSLTGSLAVREHGAFIENIGVEPHIDLPFTANDIRYKGYSEYLDKVKKLVCQLINNDGTIILAEDGSF
# B4: DT4: C. trachomatis D protein spot, C-terminal fragment of CT858 (protein)
# chain: GYNIGSTDGFLPVIGPVIWESEGLFRAYISSVTDGDGKSHKVGFLRIPTYSWQDMEDFDPSGPPPWEEFAKIIQVFSSNTEALIIDQTNNPGGSVLYLYALLSMLTDRPLELPKHRMILTQDEVVDALDWLTLLENVDTNVESRLALGDNMEGYTVDLQVAEYLKSFGRQVLNCWSKGDIELSTPIPLFGFEKIHPHPRVQYSKPICVLINEQDFSCADFFPVVLKDNDRALIVGTRTAGAGGFVFNVQFPNRTGIKTCSLTGSLAVREHGAFIENIGVEPHIDLPFTANDIRYKGYSEYLDKVKKLVCQLINNDGTIILAEDGSF
# B5: DT9: C. trachomatis D protein spot identified as CT610 (lower row) (protein)
# chain: MNFLDQLDLIIQNKHMLEHTFYVKWSKGELTKEQLQAYAKDYYLHIKAFPKYLSAIHSRCDDLEARKLLLDNLMDEENGYPNHIDLWKQFVFALGVTPEELEAHEPSEAAKAKVATFMRWCTGDSLAAGVAALYSYESQIPRIAREKIRGLTEYFGFSNPEDYAYFTEHEEADVRHAREEKALIEMLLKDDADKVLEASQEVTQSLYGFLDSFLDPGTCCSCHQSY
# B6: DT7: C. trachomatis D protein spot identified as CT610 (upper row) (protein)
# chain: B5 chain
# B7: DT10: C. trachomatis D protein spot identified as CT610 (lower row) (protein)
# chain: B5 chain
# B8: DT11: C. trachomatis D protein spot identified as CT610 (lower row) (protein)
# chain: B5 chain
# How the values were obtained:
# [1] = tested on: C. trachomatis D infected cell cultures; experiment: Pulse chase studies of candidates for secreted proteins (2D-PAGE); assay type: cell-based
# Description: (§1) To label chlamydial proteins for two hour periods, infected cell cultures were incubated in a medium containing RPMI 1640, […] gentamycin, 40 μg/ml cycloheximide, 100 μCi/ml [35S]-methionine/cysteine (Promix, Amersham Pharmacia Biotech, Uppsala, Sweden) as described previously (Shaw et al., 1999,2000) [18.] [19.]. After labelling the labelling medium was changed to normal growth medium following two washes in normal growth medium and the infected cells were harvested at different points in time after labelling. Similarly, labelled EB proteins were obtained by allowing the Chlamydia to grow until 72 h.p.i. after the two hour labelling periods. The labelled EB were then harvested and purified using two consecutive steps of density gradient ultracentrifugation essentially as described for C. trachomatis in (Schacter and Wyrick, 1994) [22.]and for C. pneumoniae (Knudsen et al. 1999 [17.]). Proteins in the EB preparation and pulse chase preparation were labelled at the same intervals as proteins from the whole cell lysate preparation to facilitate correct 2D-PAGE protein profile comparison.
# In order to estimate the time in which the identified candidate proteins could be present inside infected cells, the invention provides a series of pulse chase studies. In the following examples infected cell cultures were [35S]-labelled from 22-24 hours. After the labelling period the medium was changed to normal RPMI growth medium without [35S]-methionine and cells were harvested at different times after labelling.
# [2] = tested on: host cell proteasome; experiment: Immunoblotting with PAb255 against CT610 of MG132 treated infected cells; assay type: cell-based, C. trachomatis D infected cells; details: for abundance on 2D-gel immunoblot with PAb255 after MG132 treatment: MG132 for 6 hours prior to harvesting at 30 h.p.i.
# Description: In order to confirm that the PAbs recognized the correct vaccine candidates and to visualize potential post translational modifications or processing, 2D-PAGE immunoblotting were performed. 500 μg unlabelled and 2×10^6 cpm labelled C. trachomatis D or C. pneumoniae protein from whole cell lysates was separated by 2D-PAGE, and proteins were electroblotted on to PVDF membranes. Immunostaining was carried out using a 1/5001/1000 dilution of the PAbs in a buffer containing 150 mM NaCl (or in high salt, 400 mM), 20 mM Tris, 0.2% w/v gelatin, 0.05% v/v Tween 20 (Bio-Rad) and 2% v/v normal goat serum (Dako, Glostrup Denmark).
# The secondary antibody used was alkaline phosphatase-conjugated goat anti-rabbit IgG (Bio-Rad) diluted 1/2000 in antibody buffer. Blots were stained with 5-bromo-4-chloro-3-indolylphosphate toluidium (BCIP)/nitroblue tetrazolium (NBT) (Bio-Rad) until a clear reaction was detected. Immunoblots were computer scanned and subsequently exposed to X-ray films for approximately 8 days. Melanie II Software was used in order to compare immunostained proteins with their [35S]-labelled counterparts.
# DT7 was identified as CT610 and was located just above DT9, DT10, DT11 and DT12 (FIG. 6A). IMB with PAb255 against CT610 on 2D-gel blots (FIG. 7C1) of whole cell lysates clearly reacted with two rows of spots, one row representing DT7 and the other row representing DT9, DT10, DT11 and DT12. CT610 is therefore present in different isoforms presumably due to different posttranslational modification and processing.
# IMB with PAb255 was performed on ordinary SDS-PAGE PVDF blots with protein from whole cell lysates treated for six hours in the presence or absence of MG132, respectively.
# [3] = tested on: host cell proteasome; experiment: Pulse chase studies in combination with proteasome inhibitors (2D-PAGE); assay type: cell-based, C. trachomatis D infected cells; parameters: key to Affected by MG115 / Affected by MG132: +: turnover times is prolonged by treatment with different proteasome inhibitors during labelling and chase; details: for level on chased+MG132 gels compared to controls: labelled 22-24 h.p.i., chased 24-28 h.p.i. with MG132 (10-100 μM; 20 μM in FIG. 6); for turnover time upon addition of proteasome inhibitors: proteasome inhibitors added during the chase period; for Affected by MG115 / Affected by MG132: turnover time of C. trachomatis D protein, inhibitor during labelling and chase
# Description: as §1
# Cell permeable proteasome inhibitors are added to the infected cell cultures during the labelling and chase period and the turnover time of proteins compared to that observed for labelling/chase without proteasome inhibitors added. Proteins were labelled in the presence or absence of 10-100 μM of the proteasome inhibitor MG-132 from 22-24 h.p.i. The labelling medium was then replaced with growth medium with or without MG132 after two washes in normal growth medium and chased from 24 h.p.i. to 28 h.p.i. Cell lysates were run on 2D-PAGE(IPG) and compared to controls without MG-132. and to gels with proteins harvested immediately after labelling (FIGS. 6A, B and C).
# The invention includes the use of several other proteasome inhibitors (e.g. MG115, MG262, PSI and lactocystein), which inhibit different parts of the catalytic activity of the proteasome, which may elucidate other proteins that are degraded in the proteasome (Table IV).
Molecule,turnover time in pulse chase studies [1],"turnover time (time present after synthesis) ([1]; labelled 22-24 h.p.i., chased)",abundance on 2D-gel immunoblot with PAb255 after MG132 treatment [2],level on chased+MG132 gels compared to controls [3],turnover time upon addition of proteasome inhibitors [3],Affected by MG115 [3],Affected by MG132 [3],"level of band on SDS-PAGE immunoblot with PAb255, MG132 treated vs untreated ([2]; six hours with or without MG132 (50 μM), harvested 30 h.p.i.)",abundance on 2D-gel immunoblot with PAb255 after MG132 treatment ([2]; listed as DT111)
B1,short,< 6 h,,,,,,,
B2,long,,,,,,,,
B3,long,,,,,,,,
B4,long,,,,,,,,
B5,short,,clear relative increase; also recorded: clearly increased,significantly greater; also recorded: higher; also recorded: significantly increased,prolonged,+,+,,
B6,short,,,not significantly affected,,,,not significantly altered,
B7,short,,clear relative increase; also recorded: clearly increased,significantly greater; also recorded: higher; also recorded: significantly increased,prolonged,+,+,,
B8,short,,clearly increased,significantly greater; also recorded: higher; also recorded: significantly increased,prolonged,+,+,,clear relative increase

# — patent US20030199438A1, “Method for identification of proteins from intracellular bacteria” (priority 2001, published 2003)
